Each block holds one binder with its values, some of them ahead of it.
Assays:
PROCR [1] = target: T1, PROCR (human, UniProt Q9UNN8 18-210); assay: BLI, AHC sensor, nanobody-Fc captured, antigen in solution
T1 construct: Recombinant human protein in ELISA and BLI
T1 sequence (looked up): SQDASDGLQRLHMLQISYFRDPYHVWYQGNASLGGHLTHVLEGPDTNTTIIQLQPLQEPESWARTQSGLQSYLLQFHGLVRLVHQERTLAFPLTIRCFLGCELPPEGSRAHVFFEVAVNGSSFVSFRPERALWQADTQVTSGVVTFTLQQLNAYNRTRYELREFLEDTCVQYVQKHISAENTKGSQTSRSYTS
Excerpt: (§1) Octet RED96 System (ForteBio) was used to perform kinetic measurement of nanobody binding to antigens. For Anti-Penta-His Biosensors (HIS1K), his-tagged recombinant human proteins were first immobilized onto the biosensors, and recombinant nanobodies fused with human IgG1 were applied to detect binding. For Anti-Human IgG Fc Capture Biosensors (AHC), recombinant nanobodies fused with human IgG1 were first loaded onto the biosensors, and probes were dipped in serial dilutions of recombinant human antigens.

PROCR [2] = target: T1, PROCR; assay: ELISA, plate-coated recombinant human protein, nanobody-Fc
Method: (§2) Recombinant human protein was diluted in PBS to a final concentration of 5 μg/mL and was immobilized on 96-well flat bottom MaxiSorp plates (Thermo Fisher Scientific) and placed at 4° C. overnight. Plates were washed three times with 225 μL ELISA wash buffer (PBS with 0.05% Tween 20) and 200 μL ELISA blocking buffer (PBS with 1% Casein) was added to the well. Plates were incubated with shaking for 2 hours at room temperature. ELISA blocking buffer was removed from the wells and appropriate dilutions of recombinant nanobodies in 100 μL ELISA blocking buffer was added to each well. Plates were incubated with shaking for 2 hours at room temperature. Plates were washed 3 times with 225 μL ELISA wash buffer and 1:5000 goat anti-human IgG HRP (Millipore Sigma) in 100 μL ELISA blocking buffer was added to the wells. Plates were incubated with shaking for 1 hour at room temperature. Plates were washed 6 times with 225 μL ELISA wash buffer. 50 μL TMB substrate (BD Biosciences) was added to the wells and plates were incubated for 15 minutes in the dark at room temperature. 50 μL 1 M sulfuric acid was added to the wells and absorbance at 450 nm was measured in a Synergy HTX Multi-Mode Microplate Reader (BioTek).

IL10RA = target: T2, IL10RA (human, UniProt Q13651 22-235); assay: as above
T2 construct: Recombinant human protein in ELISA
T2 sequence (looked up): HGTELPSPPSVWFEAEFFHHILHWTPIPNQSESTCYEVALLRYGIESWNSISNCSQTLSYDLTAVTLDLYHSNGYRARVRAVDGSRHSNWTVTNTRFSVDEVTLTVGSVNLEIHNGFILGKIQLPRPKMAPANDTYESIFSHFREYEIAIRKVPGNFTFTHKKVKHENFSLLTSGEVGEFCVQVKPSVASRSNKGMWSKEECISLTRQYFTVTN
Method: as §2

LAIR2 = target: T3, LAIR2 (human, UniProt Q6ISS4 22-152); assay: as above
T3 construct: Recombinant human protein in ELISA
T3 sequence (looked up): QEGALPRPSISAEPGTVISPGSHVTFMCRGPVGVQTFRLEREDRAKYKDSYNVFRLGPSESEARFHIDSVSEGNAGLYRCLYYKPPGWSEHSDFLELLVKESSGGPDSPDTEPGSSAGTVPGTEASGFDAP
Method: as §2

CCL16 [3] = target: T4, CCL16 (human, UniProt O15467 24-120); assay: BLI, AHC sensor, nanobody-Fc captured, antigen in solution
T4 construct: Recombinant human protein in ELISA and BLI
T4 sequence (looked up): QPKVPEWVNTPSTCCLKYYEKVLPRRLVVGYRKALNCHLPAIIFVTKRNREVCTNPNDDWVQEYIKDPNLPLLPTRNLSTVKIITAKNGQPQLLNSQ
Excerpt: as §1

CCL16 [4] = target: T4, CCL16; assay: ELISA, plate-coated recombinant human protein, nanobody-Fc
Method: as §2

IL1RN [5] = target: T5, IL1RN (human, UniProt P18510 26-177); assay: BLI, AHC sensor, nanobody-Fc captured, antigen in solution
T5 construct: Recombinant human protein in ELISA and BLI
Excerpt: as §1

IL1RN [6] = target: T5, IL1RN; assay: ELISA, plate-coated recombinant human protein, nanobody-Fc
Method: as §2

T5 sequence (P18510 26-177 limits assumed): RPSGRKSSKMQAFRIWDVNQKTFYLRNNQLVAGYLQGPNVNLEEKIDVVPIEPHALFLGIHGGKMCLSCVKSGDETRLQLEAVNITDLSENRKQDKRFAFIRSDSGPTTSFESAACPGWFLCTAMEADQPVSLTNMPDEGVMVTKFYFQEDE

B3: IL10RA_Nb72 (Fc fusion)
chain: QVQLQESGGGLVQAGGSLRLSCAASGTISSEHAMGWYRQAPGKERELVAGITYGSITNYADSVKGRFTISRDNAKNTVYLQMNSLKPEDTAVYYCAVYYYYRATIYHALGYWGQGTQVTVSS
notes: Nanobody expressed and tested as Fc fusion (human IgG1); not shown: human IgG1 Fc (vector pCER243)
- EC50 (IL10RA): 16.9 nM

B4: LAIR2_Nb2.51 (Fc fusion)
chain: QVQLQESGGGLVQAGGSLRLSCAASGSIFYPSAMGWYRQAPGKERELVASIGQGGSTYYADSVKGRFTISRDNAKNTVYLQMNSLKPEDTAVYYCAVQPYSANLHRYWGQGTQVTVSS
notes: as for B3
- EC50 (LAIR2): 0.379 nM

B5: CCL16_Nb2.1 (Fc fusion)
chain: QVQLQESGGGLVQAGGSLRLSCAASGYISSYWDMGWYRQAPGKERELVAAIAPGTITYYADSVKGRFTISRDNAKNTVYLQMNSLKPEDTAVYYCAASEFDNEAHDYWGQGTQVTVSS
notes: as for B3
- Kd (CCL16 [3]): 17.4 nM
- EC50 (CCL16 [4]): 0.882 nM

Second part, the binder after the results:

- Kd (PROCR [1]): 92.1 nM
- EC50 (PROCR [2]): 0.0104 nM
B1: PROCR_Nb87 (Fc fusion)
chain: QVQLQESGGGLVQAGGSLRLSCAASGSISSYPYMGWYRQAPGKERELVASIASGTNTYYADSVKGRFTISRDNAKNTVYLQMNSLKPEDTAVYYCAADSTGPWSHVYWGQGTQVTVSS
notes: as for B3

- Kd (PROCR [1]): 62.9 nM
- EC50 (PROCR [2]): 0.287 nM
B2: PROCR_Nb88 (Fc fusion)
chain: QVQLQESGGGLVQAGGSLRLSCAASGTIFKLGYMGWYRQAPGKEREFVATITTGATTYYADSVKGRFTISRDNAKNTVYLQMNSLKPEDTAVYYCAADTYGPWAYSYWGQGTQVTVSS
notes: as for B3

- Kd (IL1RN [5]): 852 nM
- EC50 (IL1RN [6]): 0.168 nM
B6: IL1RN_Nb77 (Fc fusion)
chain: QVQLQESGGGLVQAGGSLRLSCAASGTIFTWLVMGWYRQAPGKERELVASIDPGTNTYYADSVKGRFTISRDNAKNTVYLQMNSLKPEDTAVYYCAARYVAGYTVGAYHYYWGQGTQVTVSS
notes: as for B3

Source: patent US20230416942A1 (YALE UNIVERSITY, published 2023)
